System: MS2 coat protein
Experiment: apparent KD of MS2 coat protein; designed switch direction (-1 OFF switch, 1 ON switch): -1; higher = weaker reporter binding
How it was run: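 SNAP-549-labelled MS2 coat protein was titrated, doubling from 0.7 or 1.5 nM to 3 µM, over designed RNA switches transcribed on Illumina chips by stalled E. coli RNA polymerase. Runs were done without input, with 200 uM small-molecule ligand, or with an oligonucleotide input. Apparent KD is the per-design median over clusters of curve-fitted normalised fluorescence.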

[1] = Eterna round: R95, input ligand: microRNA oligo, concentration not stated
[2] = input ligand: microRNA oligo, concentration not stated
[3] = Eterna round: R95, input ligand: FMN 200 uM
[4] = Eterna round: R95, input ligand: none

Which results are given for “CCUCAGUGAGGAUAUGCUGCCGCCGUGAAUACACACCGCGCGUAGAAGGCACAUGAGGAUCACCCAUGUGAAGG [Eternabot (Original) Solution 9] (Eterna round: R97, puzzle: Exclusion 4)”?
apparent KD of MS2 coat protein (input ligand: FMN 200 uM): 354 nM; apparent KD of MS2 coat protein (input ligand: none): 97.7 nM

Which “apparent KD of MS2 coat protein” value (input ligand: FMN 200 uM) does the source give for “GAUUAACAUGAGGAUCACCCAUGUGAGGAUAUUGACUUGCUCACUUUCCCAUUUGAGUCGAGAAGGCGCAUCUG [1986#22] (Eterna round: R97, puzzle: Exclusion 1)” here?
The value was 68.8 nM.

And the “apparent KD of MS2 coat protein” value (input ligand: none)?
Its value is 39 nM.

With “AAUAACAAGCCGAUCCUUAACAUGAGGAUCACCCAUGUGCUCGUCUUGUAAAGUACUAUCACGAAAGUGAUAGUACA (Eterna round: R97, puzzle: Sensor, turn-off variant 1)” as the sequence, how does the “apparent KD of MS2 coat protein” value (input ligand: FMN 200 uM) read?
Its value is 25.1 nM.

What about the “apparent KD of MS2 coat protein” value (input ligand: none) of the same sequence?
Its value is 22.7 nM.

Which “apparent KD of MS2 coat protein” value [1] does the source give for “GUGGUACAUGAGGAUCACCCAUGUCAGGAUAUCGUGUGUUUUUUUUCGGCCGCGCGCGCGAGAAGGGACGUCUU (puzzle: Exclusion 1)” here?
The value was 16.8 nM.

For “AUGAUAUAACAGGAUAUUUGGCGCGGAUGCAGAGAAGAAGGGUUGACAUGAGGAUCACCCAUGUGAUCCUUCAA [Eternabot (L1) Solution 18] (Eterna round: R97, puzzle: Exclusion 6)”, which “apparent KD of MS2 coat protein” value (input ligand: FMN 200 uM) is on record?
Its value is 20.1 nM.

What about the “apparent KD of MS2 coat protein” value (input ligand: none) of the same sequence?
Its value is 14.3 nM.

Which results are given for “GGGCUGUCAGGAUAUGGGCCCGGGCCCGAAAGGGUUUGGGCCCAGAAGGGACAUGAGGAUCACCCAUGUGGCCC [-43.8, -42.8 kcal, A 20%, 5b-0] (Eterna round: R97, puzzle: Exclusion 4)”?
apparent KD of MS2 coat protein (input ligand: FMN 200 uM): 34.2 nM; apparent KD of MS2 coat protein (input ligand: none): 34.5 nM

For “UUAGAAUUGUUAGGAUAUUAAUUAUUGUUUAGUAUGAUCUACAUGAGGAUCACCCAUGUUAAAUAUAAGAAGGAACGUUAGAUU [JR_ExcNG2_Sub095] (Eterna round: R96, puzzle: Exclusion NG 2)”, which “apparent KD of MS2 coat protein” value (input ligand: FMN 200 uM) is on record?
The value was 43.7 nM.

And the “apparent KD of MS2 coat protein” value [2]?
Its value is 35.6 nM.

And the “apparent KD of MS2 coat protein” value (input ligand: none)?
Its value is 51.3 nM.

What does the source list for “GCGAAAGAAAACAGGUGAAACAUGAGGAUCACCCAUGUCCUCAUUUGCUCGUCUUAUAAGCUAUGCGAAAGCAUAGC [Mat - Sensor v3 - turn-off var 1 - Eli Mod - D52] (puzzle: Sensor v3, turn-off variant 1)”?
apparent KD of MS2 coat protein [3]: 173 nM; apparent KD of MS2 coat protein [1]: 391 nM; apparent KD of MS2 coat protein [4]: 218 nM

Which “apparent KD of MS2 coat protein” value (input ligand: FMN 200 uM) does the source give for “UUCCUACUUGAGGAUCACCCAAGUCAGGAUAUCCAUAGCCGACACUCUUUUCGGAACGGGAGAAGGGACUUGGU [Tiisatbi] (Eterna round: R97, puzzle: Exclusion 1)” here?
The value was 97.5 nM.

What about the “apparent KD of MS2 coat protein” value (input ligand: none) of the same sequence?
Its value is 37.2 nM.

Which “apparent KD of MS2 coat protein” value [3] does the source give for “CUGGUCCGAGGAUAUAUUUUGUGAAACAUGAGGAUCACCCAUGUAAUAAAAUGGAUAUAAAUAGAAGGCGGACUAG [Mat - Exclusion 5 - JL mod - D41] (puzzle: Exclusion 5)” here?
Its value is 25.1 nM.

And the “apparent KD of MS2 coat protein” value [1]?
Its value is 21 nM.

What about the “apparent KD of MS2 coat protein” value [4] of the same sequence?
Its value is 18.1 nM.

How did the “apparent KD of MS2 coat protein” value (input ligand: FMN 200 uM) turn out when “CACCGUUACACAGGAUAUGUUACAUGAGGAUCACCCAUGUAAUAAAUGAGAAUUUCGAAUGUAAUACAGAAGGGUGGAAUCGGC [Ostricism 73 - Jieux - Exclusion NG 2] (Eterna round: R96, puzzle: Exclusion NG 2)” was run?
Its value is 34.7 nM.

And the “apparent KD of MS2 coat protein” value [2]?
Its value is 27.9 nM.

And the “apparent KD of MS2 coat protein” value (input ligand: none)?
The value was 28.4 nM.

How did the “apparent KD of MS2 coat protein” value (input ligand: FMN 200 uM) turn out when “GUCCUUUCUGAGGAUAUUAUCCUUUUCGAUUGAUAAGAAGGCAGUACAUGAGGAUCACCCAUGUGGGUUGUCUG [Polaris30] (Eterna round: R97, puzzle: Exclusion 6)” was run?
The value was 45.8 nM.

What about the “apparent KD of MS2 coat protein” value (input ligand: none) of the same sequence?
Its value is 38.2 nM.

What does the source list for “UUGUUAUAUGUAGGAUAUGCGUAUUGUUAUUAUGCAGAAGGACAUGAGGAUCACCCAUGUAUAUUAUUAUUAUAUAUUAUAUAU [Title] (Eterna round: R96, puzzle: Exclusion NG 1)”?
apparent KD of MS2 coat protein (input ligand: FMN 200 uM): 87.8 nM; apparent KD of MS2 coat protein [2]: 22.2 nM; apparent KD of MS2 coat protein (input ligand: none): 27.4 nM

What does the source list for “GGAUCAUAUGUCAGGAUAUGCUGGUCCUUGGAUCAGCAGAAGGGACAUGAGGAUCACCCAUGUCAUGAAGAUCC [Eli bmx4 4.79] (Eterna round: R97, puzzle: Brourd's mod of Exclusion 4)”?
apparent KD of MS2 coat protein (input ligand: FMN 200 uM): 203 nM; apparent KD of MS2 coat protein (input ligand: none): 28.3 nM

With “GUAGAGUAAGGAUAUGUAGAAUAGGAUAGAAUGGUUAGAAUACAGAAGGUACAUGAGGAUCACCCAUGUAAUGU [Excluse me!!!! 3 - Jieux - Exclusion 4] (puzzle: Exclusion 4)” as the sequence, how does the “apparent KD of MS2 coat protein” value [1] read?
The value was 17 nM.

What does the source list for “UUAUUAGCAGGAUAUAUCCAGGAUUACAUGAGGAUCACCCAUGUGGCCGCUUGAAAUUCUAUAGAAGGGCUUUAUU [Mod of ViennaUCT 36 - Jieux - Exclusion 5] (Eterna round: R97, puzzle: Exclusion 5)”?
apparent KD of MS2 coat protein (input ligand: FMN 200 uM): 52.7 nM; apparent KD of MS2 coat protein (input ligand: none): 45.8 nM

For “GUAGAGUAAGGAUAUGUUGAAUAGGAUAGAAUGGUUAGAAAACAGAAGGUACAUGAGGAUCACCCAUGUAAUGU [Excluse me!!!! 11 - Jieux - Exclusion 4] (puzzle: Exclusion 4)”, which “apparent KD of MS2 coat protein” value [3] is on record?
Its value is 20 nM.

And the “apparent KD of MS2 coat protein” value [1]?
The value was 19.1 nM.

What about the “apparent KD of MS2 coat protein” value [4] of the same sequence?
Its value is 17.6 nM.

How did the “apparent KD of MS2 coat protein” value [1] turn out when “CCUCGACGGUAGGAUAUCGUCAAACUAUUGUGAUGAGAAGGACUGACAUGAGGAUCACCCAUGUUAACGUGAUG [Exclusion 6 - 7:a] (puzzle: Exclusion 6)” was run?
The value was 14.8 nM.

Which results are given for “AUGAGGUUAGGAUAUACAUGAGGAUCACCCAUGUUGAAAGGUUAGAUAGGCGAAGCUGGUAGAAGGAACGGAGC [JR_Exclu3_Sub055] (puzzle: Exclusion 3)”?
apparent KD of MS2 coat protein [3]: 27.9 nM; apparent KD of MS2 coat protein [1]: 29.8 nM; apparent KD of MS2 coat protein [4]: 32.8 nM

For “AAUAGACAUGAGGAUCACCCAUGUCAGGAUAUUUCGAGUAAGGUGGGCCUAGAAUUGGGAAGAAGGGACCUGGA [Eternabot (L1) Solution 29] (Eterna round: R97, puzzle: Exclusion 1)”, which “apparent KD of MS2 coat protein” value (input ligand: FMN 200 uM) is on record?
Its value is 17.7 nM.

And the “apparent KD of MS2 coat protein” value (input ligand: none)?
Its value is 21.3 nM.

Which “apparent KD of MS2 coat protein” value [1] does the source give for “GCAUCCAAAGUGAGGAUAUACCUCUGGAUACAGAGGUAGAAGGCACAUGAGGAUCACCCAUGUUCCUAGGAUGC [Fiskers BMX 4 - 38] (puzzle: Brourd's mod of Exclusion 4)” here?
The value was 13.3 nM.

“CAUAAUGCAGGAUAUACCAAAUGGCAGUGAAUGCGUGCGCAACAUGAGGAUCACCCAUGUAGAAGGGCACAAGA [Eternabot (Original) Solution 27] (Eterna round: R97, puzzle: Exclusion 2)” was tested. Which “apparent KD of MS2 coat protein” value (input ligand: FMN 200 uM) did it give?
The value was 18 nM.

And the “apparent KD of MS2 coat protein” value (input ligand: none)?
Its value is 13.5 nM.

“ACAAGCUAACUCAUAUCUUACAUGAGGAUCACCCAUGUUUUUUCAAUUUUGUUUGGUCUCCUUUGUGCUCGUCUUAU [JR_STOV1_Sub052] (Eterna round: R97, puzzle: Sensor, turn-off variant 1)” was tested. Which “apparent KD of MS2 coat protein” value (input ligand: FMN 200 uM) did it give?
The value was 66 nM.

What about the “apparent KD of MS2 coat protein” value (input ligand: none) of the same sequence?
The value was 64.9 nM.

Which results are given for “GCUAGGCAUGUCAGGAUAUGCUGUACCUUGGUACAGCAGAAGGGACAUGAGGAUCACCCAUGUGCCUACCUAGC [JL-BMX4-4.04] (Eterna round: R97, puzzle: Brourd's mod of Exclusion 4)”?
apparent KD of MS2 coat protein (input ligand: FMN 200 uM): 173 nM; apparent KD of MS2 coat protein (input ligand: none): 28.3 nM

For “UUCUUGUGAGGAUAUCAGUAGUAAAUAAAUAAAAUUACUACUGAGAAGGCACAUGAGGAUCACCCAUGUUCCUU [salish99_ex3_r3_092] (puzzle: Exclusion 4)”, which “apparent KD of MS2 coat protein” value [1] is on record?
Its value is 15 nM.

For “UAUAGGCUAGGAUAUACAACACUUGGUUCGAAUGUUUGGAGACAUGAGGAUCACCCAUGUAGAAGGAGCAUUUC [Leleis] (Eterna round: R96, puzzle: Exclusion 2)”, which “apparent KD of MS2 coat protein” value (input ligand: FMN 200 uM) is on record?
Its value is 264 nM.

And the “apparent KD of MS2 coat protein” value [2]?
Its value is 54 nM.

What about the “apparent KD of MS2 coat protein” value (input ligand: none) of the same sequence?
The value was 66.5 nM.

Reference: the supplement of paper PMC9170038
